The experiment has as its target genome-edited CXCR4 fused to Nluc (human (endogenous in HEK293FT)) (UniProt P61073).

Consider 1 substance from PMC5466623.

UniProt P61073, sequence (P61073 whole entry, the tested form may be a part): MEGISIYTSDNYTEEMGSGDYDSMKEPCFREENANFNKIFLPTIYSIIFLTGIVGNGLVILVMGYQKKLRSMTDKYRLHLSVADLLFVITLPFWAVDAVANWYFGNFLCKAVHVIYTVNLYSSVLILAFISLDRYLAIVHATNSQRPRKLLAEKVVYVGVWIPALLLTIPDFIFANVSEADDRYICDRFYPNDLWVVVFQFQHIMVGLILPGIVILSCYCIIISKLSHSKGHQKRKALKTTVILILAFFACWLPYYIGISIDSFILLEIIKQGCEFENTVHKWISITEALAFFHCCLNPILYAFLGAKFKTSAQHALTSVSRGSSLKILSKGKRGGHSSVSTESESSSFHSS

Take “CXCL12 (from UniProt P48061 22-93) (ligand)”: the inhibition of forskolin (5 µM)-mediated cAMP accumulation (HTRF) in HEK293FT cells expressing genome-edited CXCR4/Nluc is 8.6 pEC50.
